Residue numbers refer to the chain shown, from its start.
Experiments:
[1] = target: hGHQ141N, P01241
[2] = target: hGHQ40N, P01241
[3] = target: wild type human growth hormone, P01241
Chain of wild type human growth hormone, P01241 (P01241 27-217): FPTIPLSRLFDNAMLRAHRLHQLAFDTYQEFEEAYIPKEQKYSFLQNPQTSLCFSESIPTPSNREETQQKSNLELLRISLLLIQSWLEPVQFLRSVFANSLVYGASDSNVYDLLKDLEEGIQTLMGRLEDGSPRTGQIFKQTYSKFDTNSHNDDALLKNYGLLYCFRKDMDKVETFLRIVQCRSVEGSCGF

Chain of hGHQ40N, P01241 (P01241 27-217 Q66N): as the sequence (P01241 27-217) above, with Q40N counted along it
Chain of hGHQ141N, P01241 (P01241 27-217 Q167N): as the sequence (P01241 27-217) above, with Q141N counted along it

B1: Mature mTGase from Streptoverticillium ladakanum (protein)
chain: DSDERVTPPAEPLDRMPDPYRPSYGRAETIVNNYIRKWQQVYSHRDGRKQQMTEEQREWLSYGCVGVTWVNSGQYPTNRLAFAFFDEDKYKNELKNGRPRSGETRAEFEGRVAKDSFDEAKGFQRARDVASVMNKALENAHDEGAYLDNLKKELANGNDALRNEDARSPFYSALRNTPSFKDRNGGNHDPSKMKAVIYSKHFWSGQDRSGSSDKRKYGDPEAFRPDRGTGLVDMSRDRNIPRSPTSPGESFVNFDYGWFGAQTEADADKTVWTHGNHYHAPNGSLGAMHVYESKFRNWSDGYSDFDRGAYVVTFVPKSWNTAPDKVKQGWP
Activity (RFU/sec/µg), dansyl-cadaverine fluorescence kinetics [1]: 0.63 RFU/sec/µg | HPLC peak area of product-Q40 (FIG. 3, bottom) [1]: The first peak (19.2 min, area 127) is product-Q40 | product-Q40 after 30 minutes, FPLC areas normalized to 100 (normalized to 100) [1]: 10 | Activity towards hGHQ40N (RFU/sec/µg), dansyl-cadaverine fluorescence kinetics [2]: 3.55 RFU/sec/µg | HPLC peak area of product-Q141 (FIG. 3, top) [2]: The first peak (26.5 min, area 1238) is product-Q141 | product-Q141 after 30 minutes, FPLC areas normalized to 100 (normalized to 100) [2]: 77

B2: Met-mTGase from S. ladakanum (protein)
chain: MDSDERVTPPAEPLDRMPDPYRPSYGRAETIVNNYIRKWQQVYSHRDGRKQQMTEEQREWLSYGCVGVTWVNSGQYPTNRLAFAFFDEDKYKNELKNGRPRSGETRAEFEGRVAKDSFDEAKGFQRARDVASVMNKALENAHDEGAYLDNLKKELANGNDALRNEDARSPFYSALRNTPSFKDRNGGNHDPSKMKAVIYSKHFWSGQDRSGSSDKRKYGDPEAFRPDRGTGLVDMSRDRNIPRSPTSPGESFVNFDYGWFGAQTEADADKTVWTHGNHYHAPNGSLGAMHVYESKFRNWSDGYSDFDRGAYVVTFVPKSWNTAPDKVKQGWP
Activity (RFU/sec/µg), dansyl-cadaverine fluorescence kinetics [1]: 0.8 RFU/sec/µg | Activity towards hGHQ40N (RFU/sec/µg), dansyl-cadaverine fluorescence kinetics [2]: 4.74 RFU/sec/µg

B3: AlaPro-mTGase from S. ladakanum (protein)
chain: APDSDERVTPPAEPLDRMPDPYRPSYGRAETIVNNYIRKWQQVYSHRDGRKQQMTEEQREWLSYGCVGVTWVNSGQYPTNRLAFAFFDEDKYKNELKNGRPRSGETRAEFEGRVAKDSFDEAKGFQRARDVASVMNKALENAHDEGAYLDNLKKELANGNDALRNEDARSPFYSALRNTPSFKDRNGGNHDPSKMKAVIYSKHFWSGQDRSGSSDKRKYGDPEAFRPDRGTGLVDMSRDRNIPRSPTSPGESFVNFDYGWFGAQTEADADKTVWTHGNHYHAPNGSLGAMHVYESKFRNWSDGYSDFDRGAYVVTFVPKSWNTAPDKVKQGWP
Activity (RFU/sec/µg), dansyl-cadaverine fluorescence kinetics [1]: 1.02 RFU/sec/µg | Activity towards hGHQ40N (RFU/sec/µg), dansyl-cadaverine fluorescence kinetics [2]: 6.91 RFU/sec/µg

B4: GlyPro-mTGase from S. ladakanum (protein)
chain: B3 chain with A1G
Activity (RFU/sec/µg), dansyl-cadaverine fluorescence kinetics [1]: 0.48 RFU/sec/µg | Activity towards hGHQ40N (RFU/sec/µg), dansyl-cadaverine fluorescence kinetics [2]: 4.25 RFU/sec/µg | hGH conv. rate (%) by CE; reaction time 15 m, enzyme 16 µg/ml [3]: 55%

B5: AlaPro-mTGase from S. mobaraensis (protein)
chain: APDSDDRVTPPAEPLDRMPDPYRPSYGRAETVVNNYIRKWQQVYSHRDGRKQQMTEEQREWLSYGCVGVTWVNSGQYPTNRLAFASFDEDRFKNELKNGRPRSGETRAEFEGRVAKESFDEEKGFQRAREVASVMNRALENAHDESAYLDNLKKELANGNDALRNEDARSPFYSALRNTPSFKERNGGNHDPSRMKAVIYSKHFWSGQDRSSSADKRKYGDPDAFRPAPGTGLVDMSRDRNIPRSPTSPGEGFVNFDYGWFGAQTEADADKTVWTHGNHYHAPNGSLGAMHVYESKFRNWSEGYSDFDRGAYVITFIPKSWNTAPDKVKQGWP
Activity (RFU/sec/µg), dansyl-cadaverine fluorescence kinetics [1]: 1.56 RFU/sec/µg | Activity towards hGHQ40N (RFU/sec/µg), dansyl-cadaverine fluorescence kinetics [2]: 5.05 RFU/sec/µg | conversion rate by CE (FIG. 2B); reaction time 30 minutes [3]: conversion rate=32% | hGH conv. rate (%) by CE, reference of the separate experiment; reaction time 45 m, enzyme 4.6 µg/ml [3]: 39% | hGH conv. rate (%) by CE; reaction time 30 m, enzyme 9.6 µg/ml [3]: 33%

B6: mTGase from Streptomyces mobaraensis (protein)
chain: DSDDRVTPPAEPLDRMPDPYRPSYGRAETVVNNYIRKWQQVYSHRDGRKQQMTEEQREWLSYGCVGVTWVNSGQYPTNRLAFASFDEDRFKNELKNGRPRSGETRAEFEGRVAKESFDEEKGFQRAREVASVMNRALENAHDESAYLDNLKKELANGNDALRNEDARSPFYSALRNTPSFKERNGGNHDPSRMKAVIYSKHFWSGQDRSSSADKRKYGDPDAFRPAPGTGLVDMSRDRNIPRSPTSPGEGFVNFDYGWFGAQTEADADKTVWTHGNHYHAPNGSLGAMHVYESKFRNWSEGYSDFDRGAYVITFIPKSWNTAPDKVKQGWP
Activity (RFU/sec/µg), dansyl-cadaverine fluorescence kinetics [1]: 0.98 RFU/sec/µg | HPLC peak area of product-Q40 (FIG. 4, bottom) [1]: The first peak (19.5 min, area 296) is product-Q40 | product-Q40 after 30 minutes, FPLC areas normalized to 100 (normalized to 100) [1]: 19 | Activity towards hGHQ40N (RFU/sec/µg), dansyl-cadaverine fluorescence kinetics [2]: 3.35 RFU/sec/µg | HPLC peak area of product-Q141 (FIG. 4, top) [2]: The first peak (26.9 min, area 1283) is product-Q141 | product-Q141 after 30 minutes, FPLC areas normalized to 100 (normalized to 100) [2]: 71

B7: GlyPro-mTGase_Y75F from S. ladakanum (protein)
chain: B3 chain with A1G, Y77F
hGH conv. rate (%) by CE; reaction time 60 m, enzyme 12.9 µg/ml [3]: 41% | hGH conversion rate by CE (FIG. 2E); reaction time 75 m [3]: hGH conversion rate=33%

B8: GlyPro-mTGase_Y75N from S. ladakanum (protein)
chain: B3 chain with A1G, Y77N
hGH conv. rate (%) by CE; reaction time 120 m, enzyme 6.5 µg/ml [3]: 44% | hGH conversion rate by CE (FIG. 2F); reaction time 90 m [3]: hGH conversion rate=50%

B9: GlyPro-mTGase_Y62H_Y75N from S. ladakanum (protein)
chain: B3 chain with A1G, Y64H, Y77N
hGH conv. rate (%) by CE; reaction time 75 m, enzyme 34.5 µg/ml [3]: 38%

B10: GlyPro-mTGase_Y62H_Y75F from S. ladakanum (protein)
chain: B3 chain with A1G, Y64H, Y77F, K329T
RS (relative selectivity against AlaPro-mTGase from S. mobaraensis), separate experiment [3]: 7.6 | Selectivity (Q141/Q40) by CE, separate experiment; reaction time 60 m, enzyme 8.8 µg/ml [3]: 76.5 | hGH conv. rate (%) by CE, separate experiment; reaction time 60 m, enzyme 8.8 µg/ml [3]: 38.1% | hGH conv. rate (%) by CE; reaction time 120 m, enzyme 7 µg/ml [3]: 49.4%

B11: Met-mTGase from S. mobaraensis (protein)
chain: MDSDDRVTPPAEPLDRMPDPYRPSYGRAETVVNNYIRKWQQVYSHRDGRKQQMTEEQREWLSYGCVGVTWVNSGQYPTNRLAFASFDEDRFKNELKNGRPRSGETRAEFEGRVAKESFDEEKGFQRAREVASVMNRALENAHDESAYLDNLKKELANGNDALRNEDARSPFYSALRNTPSFKERNGGNHDPSRMKAVIYSKHFWSGQDRSSSADKRKYGDPDAFRPAPGTGLVDMSRDRNIPRSPTSPGEGFVNFDYGWFGAQTEADADKTVWTHGNHYHAPNGSLGAMHVYESKFRNWSEGYSDFDRGAYVITFIPKSWNTAPDKVKQGWP
Activity (RFU/sec/µg), dansyl-cadaverine fluorescence kinetics [1]: 1.24 RFU/sec/µg | Activity towards hGHQ40N (RFU/sec/µg), dansyl-cadaverine fluorescence kinetics [2]: 5.44 RFU/sec/µg

B12: GlyPro-mTGase from S. mobaraensis (protein)
chain: B5 chain with A1G
Activity (RFU/sec/µg), dansyl-cadaverine fluorescence kinetics [1]: 1.13 RFU/sec/µg | Activity towards hGHQ40N (RFU/sec/µg), dansyl-cadaverine fluorescence kinetics [2]: 4.28 RFU/sec/µg
